Measured values from patent US11708423B2, “Chimeric engulfment receptor molecules and methods of use” (CERO THERAPEUTICS, INC., priority 2017, dated 2023).

Experiments:
[1] = tested on: H1975 EGFR+/Luciferase+ cells; experiment: Adoptive transfer of CER T cells with EGFR inhibitor in H1975 xenograft; type: in vivo, immunodeficient (NSG) mice; conditions: Osimeritinib 1 mg/kg intraperitoneally + 10e6 CER-transduced human T cells, NSG mice
Procedure: The combination of CER therapy and EGFR inhibitor therapy was also evaluated in vivo. […] H1975 EGFR+/Luciferase^+ cells were engrafted into immunodeficient (NSG) mice 14 days prior to initiation of study and evaluated for engraftment by bioluminescent emission and tumor volume seven days later. The day prior to CER adoptive transfer (day-1), animals with established tumors were randomized into groups and treated with Osimeritinib 1 mg/kg (intraperitoneally) and then infused by tail vein with 10e6 CER-transduced human T cells. Animals received 10 μg of systemic IL-2 every 24 hours×3 days following cell infusion and then monitored for tumor progression and cell expansion and persistence thereafter. Tumor volume measurements were obtained post-adoptive transfer in untreated, Osimeritinib treated (1 mg/kg)+mock-transduced T cells (vector only), and Osimeritinib (1 mg/kg)+CER122-transduced T cells (n=5/group) (FIG. 79).

H1975 NSCLC cells = experiment: Phagocytosis of Osimeritinib-treated H1975 cells by CER122 T cells; type: cell-based; conditions: 500 nM osimeritinib, 12 hours, CD4+ T cells
Procedure: H1975 NSCLC cells were treated with 500 nM Osimeritinib and then labeled with pH-rodo red, a pH sensing dye, to indicate localization to low-pH retaining endosomes. CD4+ T cells were transduced with a lentiviral vector comprising a CER122 nucleic acid and tEGFR nucleic acid (transduction marker). CER122 has a polypeptide sequence as set forth in SEQ ID NO:149 and comprises a Tim4 binding domain, Tim4 transmembrane domain, and an engulfment signaling domain comprising a primary engulfment signaling domain comprising a TLR2 signaling domain and a secondary engulfment signaling domain comprising a DAP12 signaling domain. CER122-transduced T cells labeled with CELLTRACE Violet were co-cultured with Osimeritinib-treated H1975 NSCLC cells. Fluorescent microscopy images (40X) were obtained 12 hours after co-culture of H1975 cells and CER-expressing T cells (FIG. 47, top left panel). […] Phagocytic events can be visualized as pHrodo red targets within CELLTRACE Violet labeled T cells. An enlargement of phagocytosis of pHrodo red labeled H1975 cells by CELLTRACE Violet labeled CER122-modified T cells is shown in the bottom panel of FIG. 47, with white arrows indicating phagocytic events.

[2] = tested on: A549 ALK+Luciferase+ cells; experiment: Adoptive transfer of CER T cells with ALK inhibitor in A549 ALK+ xenograft; type: in vivo, immunodeficient (NSG) mice; conditions: Alectinib 15 mg/kg intraperitoneally + 10e6 CER-transduced human T cells, NSG mice
Procedure: The combination of CER therapy and ALK inhibitor therapy was also evaluated in vivo. […] A549 ALK+Luciferase^+ cells were engrafted into immunodeficient (NSG) mice 21 days prior to initiation of study and evaluated for engraftment by bioluminescent emission and tumor volume seven days later. […] Animals received 10 μg of systemic IL-2 every 24 hours×3 days following cell infusion and then monitored for tumor progression and cell expansion and persistence thereafter.
Peripheral blood sample was stained with anti-human CD45-APC-conjugated antibody 8 days following cell infusion. Each FACS plot indicates a single animal. A bar graph depicting frequency of human CD45+ cells/μL of peripheral blood at days 4, 8, 16, and 25 post-adoptive transfer of CER122+ T cells (FIG. 77B). Peripheral blood was obtained by retro-orbital bleeding and examined for evidence of T cell engraftment by FACS. The frequency of human-CD45 cells/μL of peripheral blood was determined by FACs using TRUCOUNT (BD Biosciences) beads.

[3] = tested on: H1703 non-small cell lung cancer cells; experiment: Killing of paclitaxel treated H1703 cells by CER21+ human primary B cells; type: cell-based; conditions: Paclitaxel 30 μM, target:effector 5:1, 3 hours, vs EGFRt B cells
Procedure: Human primary B cells were transduced with pLenti Tim4-TLR8 (CER21) lentivirus expressing truncated EGFR as a transduction marker and stained with CELLTRACE Violet as described in Example 1. One day prior to setting up a co-culture assay, H1703 non-small cell lung cancer cells were incubated with phosphatidylserine inducing chemotherapy Paclitaxel (30 μM) in serum-free media for 24 hours. Floating and adherent H1703 cells were collected, centrifuged, incubated with pHrodo red (1 ng/μL) for 15 minutes at room temperature in PBS, washed, and then plated in a non-adherent 96 well plate. Human CER21+ B cells and H1703 cells were co-cultured at a target cell to effector cell ratio of 5:1 at 37° C. for 3 hours. B cells transduced with truncated EGFR were used as control. The plate was then imaged using a 20X objective, Keyence BZ-X710 microscope (FIG. 21). Cells undergoing apoptosis show increasing Red fluorescence as the intracellular pH drops in the earliest stages of apoptosis (FIG. 21, top row). Adjacent cells not induced by Paclitaxel treatment remain only dimly fluorescent. Apoptotic measurements in the presence of CER21+ B cells were quantified as the Area under the Curve of red fluorescent objects and outlined in blue using automated software (FIG. 21, bottom row; FIG. 22), for each high powered field. White arrows show apoptosis events.

[4] = tested on: staurosporine treated Jurkat cells; experiment: Phagocytosis and cytolysis of staurosporine treated Jurkat cells by CER21+ human primary B cells; type: cell-based
Procedure: One day prior to setting up the phagocytosis assay, Jurkat human B lymphocytes were cultured in complete RPMI 1640 growth media supplemented with 10% fetal bovine serum and 1% penicillin-streptomycin in a 6 well plate and treated with 1 mM staurosporine for three hours to induce apoptosis. Jurkat cells were washed twice in lx PBS to remove excess staurosporine and then stained with pHrodo Red (1 ng/μ.1 in PBS) for 15 minutes at room temperature. The Jurkat cells were supplemented with growth media, washed once to remove excess pHrodo Red, and plated on flat bottom 96 well plates at approximately 250,000 cells/well in RPMI 1640 complete media.
Transduced CER21+ human primary B cells were washed once with 1×PBS and stained with 1 μM CELLTRACE Violet in PBS for 10 minutes at 37° C. The CER21+ human primary B cells were supplemented with growth media, washed once with 1×PBS to remove excess CELLTRACE Violet, and plated onto 96 well plate at approximately 50,000 cells/well in RPMI 1640 complete media. Human CER21+primary B cells and Jurkat cells were co-cultured at a target cell to effector cell ratio of 5:1 at 37° C. for 3 hours. After incubation, the co-culture plate was then centrifuged, and the media replaced with PBS supplemented with 2% fetal bovine serum, pH 9. Phagocytic events were quantified by fluorescent microscopy (KEYENCE BZ-X710 fluorescence microscope, 20X objective). […] Solid arrows show engulfment activity. Dashed arrows show cytolytic activity.
Apoptotic cells were quantified from fluorescent images using automated software, and the number of apoptotic cells per high power view (FIG. 20A) and total fluorescence emission per high power view (FIG. 20B) were calculated using pH indicator dye.

[5] = human primary B cells, target:effector 5:1, 3 hours

| Molecule | anti-tumor response (tumor volume) [1] | phagocytosis of H1975 cells (H1975 NSCLC cells) | anti-tumor response (tumor volume, bioluminescence) [2] | killing of paclitaxel treated H1703 cells (apoptotic object area) [3] | in vitro cytolysis of engulfed Jurkat cells [4, 5] | in vitro phagocytosis of Jurkat cells [4, 5] | killing of target cells (apoptotic cells and fluorescence per high power view) ([4]; staurosporine treated (subtherapeutic dose) Jurkat cells) |
| --- | --- | --- | --- | --- | --- | --- | --- |
| CER122: Tim4 binding and transmembrane domains, TLR2 primary and DAP12 secondary signaling domains; SEQ ID NO:149 (protein, CER122 protein) MSKGLLLLWLVTELWWLYLTPAASEDTIIGFLGQPVTLPCHYLSWSQSRNSMCWGKGSCPNSKCNAELLRTDGTRIISRKSTKYTLLGKVQFGEVSLTISNTNRGDSGVYCCRIEVPGWFNDVKKNVRLELRRATTTKKPTTTTRPTTTPYVTTTTPELLPTTVMTTSVLPTTTPPQTLATTAFSTAVTTCPSTTPGSFSQETTKGSAFTTESETLPASNHSQRSMMTISTDIAVLRPTGSNPGILPSTSQLTTQKTTLTTSESLQKTTKSHQINSRQTILIIACCVGFVLMVLLFLAFLHRFHGLWYMKMMWAWLQAKRKPRKAPSRNICYDAFVSYSERDAYWVENLMVQELENFNPPFKLCLHKRDFIPGKWIIDNIIDSIEKSHKTVFVLSENFVKSEWCKYELDFSHFRLFDENNDAAILILLEPIEKKAIPQRFCKLRKIMNTKTYLEWPMDEAQREGFWVNLRAAIKSYFLGRLVPRGRGAAEAATRKQRITETESPYQELQGQRSDVYSDLNTQRPYYK | enhanced anti-tumor responses in EGFR+NSCLC model in vivo | phagocytic elimination of EGFR-mutated NSCLC cells | enhanced anti-tumor response to ALK+NSCLC in vivo | – | – | – | – |
| CER21: Tim4 binding and transmembrane domains, TLR8 signaling domain; SEQ ID NO:88 (protein, CER21 chimeric engulfment receptor) MSKGLLLLWLVTELWWLYLTPAASEDTIIGFLGQPVTLPCHYLSWSQSRNSMCWGKGSCPNSKCNAELLRTDGTRIISRKSTKYTLLGKVQFGEVSLTISNTNRGDSGVYCCRIEVPGWFNDVKKNVRLELRRATTTKKPTTTTRPTTTPYVTTTTPELLPTTVMTTSVLPTTTPPQTLATTAFSTAVTTCPSTTPGSFSQETTKGSAFTTESETLPASNHSQRSMMTISTDIAVLRPTGSNPGILPSTSQLTTQKTTLTTSESLQKTTKSHQINSRQTILIIACCVGFVLMVLLFLAFLHHLFYWDVWFIYNVCLAKVKGYRSLSTSQTFYDAYISYDTKDASVTDWVINELRYHLEESRDKNVLLCLEERDWDPGLAIIDNLMQSINQSKKTVFVLTKKYAKSWNFKTAFYLALQRLMDENMDVIIFILLEPVLQHSQYLRLRQRICKSSILQWPDNPKAEGLFWQTLRNVVLTENDSRYNNMYVDSIKQY | – | – | – | enhance killing of target cells at sub-therapeutic dose of chemotherapy | in vitro cytolysis of Jurkat cells | in vitro phagocytosis | enhanced killing of target cells |
